Publication PMC10397247

Experiments:
APC2556-AA = molecular target: T1, APC2556-AA; assay: two-hybrid library CCmax;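 further: natural log of median RNA to DNA barcode read ratio; higher means stronger binding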
T1 chain: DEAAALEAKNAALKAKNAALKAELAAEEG

APC2724-AA = molecular target: T2, APC2724-AA; assay: two-hybrid library CCmax; conditions: mean of both orientations;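 further: natural log of median RNA to DNA barcode read ratio; higher means stronger binding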
T2 chain: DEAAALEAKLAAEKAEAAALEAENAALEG

APC2811-AA = molecular target: T3, APC2811-AA; assay: two-hybrid library CCmax; conditions: mean of both orientations;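 further: natural log of median RNA to DNA barcode read ratio; higher means stronger binding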
T3 chain: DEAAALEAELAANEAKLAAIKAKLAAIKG

APC2981-AA = molecular target: T4, APC2981-AA; assay: two-hybrid library CCmax; conditions: mean of both orientations;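 further: natural log of median RNA to DNA barcode read ratio; higher means stronger binding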
T4 chain: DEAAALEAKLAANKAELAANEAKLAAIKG

APC3265-AA = molecular target: T5, APC3265-AA; assay: two-hybrid library CCmax; conditions: mean of both orientations
T5 chain: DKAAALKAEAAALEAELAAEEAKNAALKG

APC3323-AA = molecular target: T6, APC3323-AA; assay: two-hybrid library CCmax; conditions: mean of both orientations
T6 chain: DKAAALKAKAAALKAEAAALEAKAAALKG

APC3354-AA = molecular target: T7, APC3354-AA; assay: two-hybrid library CCmax; conditions: mean of both orientations
T7 chain: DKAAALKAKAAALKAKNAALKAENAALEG

APC3881-AA = molecular target: T8, APC3881-AA; assay: two-hybrid library CCmax; conditions: mean of both orientations
T8 chain: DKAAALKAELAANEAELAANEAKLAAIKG

APC4100-AA = molecular target: T9, APC4100-AA; assay: two-hybrid library CCmax; conditions: mean of both orientations
T9 chain: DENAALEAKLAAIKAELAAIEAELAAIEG

APC4336-AA = molecular target: T10, APC4336-AA; assay: two-hybrid library CCmax; conditions: mean of both orientations
T10 chain: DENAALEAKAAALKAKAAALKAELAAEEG

APC5009-AA = molecular target: T11, APC5009-AA; assay: two-hybrid library CCmax; conditions: mean of both orientations
T11 chain: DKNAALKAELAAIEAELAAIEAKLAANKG

APC542-AA = molecular target: T12, APC542-AA; assay: two-hybrid library CCmax; conditions: mean of both orientations
T12 chain: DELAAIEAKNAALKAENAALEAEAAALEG

APC5531-AA = molecular target: T13, APC5531-AA; assay: two-hybrid library CCmax; conditions: mean of both orientations
T13 chain: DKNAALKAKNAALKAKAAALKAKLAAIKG

APC6088-AA = molecular target: T14, APC6088-AA; assay: two-hybrid library CCmax; conditions: mean of both orientations
T14 chain: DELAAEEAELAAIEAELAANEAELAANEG

APC7524-AA = molecular target: T15, APC7524-AA; assay: two-hybrid library CCmax; conditions: mean of both orientations
T15 chain: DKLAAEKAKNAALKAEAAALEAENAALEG

APC8401-AA = molecular target: T16, APC8401-AA; assay: two-hybrid library CCmax; conditions: mean of both orientations
T16 chain: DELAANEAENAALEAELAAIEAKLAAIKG

APC8516-AA = molecular target: T17, APC8516-AA; assay: two-hybrid library CCmax; conditions: mean of both orientations
T17 chain: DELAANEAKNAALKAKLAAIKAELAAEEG

APC9141-AA = molecular target: T18, APC9141-AA; assay: two-hybrid library CCmax; conditions: mean of both orientations
T18 chain: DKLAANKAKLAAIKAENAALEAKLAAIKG

APC9182-AA = molecular target: T19, APC9182-AA; assay: two-hybrid library CCmax; conditions: mean of both orientations
T19 chain: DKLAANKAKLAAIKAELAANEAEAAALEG

APC9291-AA = molecular target: T20, APC9291-AA; assay: two-hybrid library CCmax; conditions: mean of both orientations
T20 chain: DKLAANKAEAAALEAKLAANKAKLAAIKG

APC9806-AA = molecular target: T21, APC9806-AA; assay: two-hybrid library CCmax; conditions: mean of both orientations
T21 chain: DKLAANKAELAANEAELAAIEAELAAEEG

4H2697-bA = molecular target: T22, 4H2697-bA; assay: two-hybrid library CCNG1
T22 chain: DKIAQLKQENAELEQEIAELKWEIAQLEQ

4H3041-bH = molecular target: T23, 4H3041-bH; assay: two-hybrid library CCNG1
T23 chain: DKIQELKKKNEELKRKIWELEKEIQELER

4H3189-bA = molecular target: T24, 4H3189-bA; assay: two-hybrid library CCNG1
T24 chain: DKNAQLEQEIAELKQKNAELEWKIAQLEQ

4H331-bA = molecular target: T25, 4H331-bA; assay: two-hybrid library CCNG1
T25 chain: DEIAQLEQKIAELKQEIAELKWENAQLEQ

4H3606-bA = molecular target: T26, 4H3606-bA; assay: two-hybrid library CCNG1
T26 chain: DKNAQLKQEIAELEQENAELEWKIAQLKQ

4H370-bA = molecular target: T27, 4H370-bA; assay: two-hybrid library CCNG1
T27 chain: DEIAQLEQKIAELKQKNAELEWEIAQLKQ

4H3782-bA = molecular target: T28, 4H3782-bA; assay: two-hybrid library CCNG1
T28 chain: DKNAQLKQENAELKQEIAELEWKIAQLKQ

4H3843-bA = molecular target: T29, 4H3843-bA; assay: two-hybrid library CCNG1
T29 chain: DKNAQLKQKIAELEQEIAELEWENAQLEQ

4H4001-bA = molecular target: T30, 4H4001-bA; assay: two-hybrid library CCNG1
T30 chain: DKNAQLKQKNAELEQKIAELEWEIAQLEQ

4H462-bA = molecular target: T31, 4H462-bA; assay: two-hybrid library CCNG1
T31 chain: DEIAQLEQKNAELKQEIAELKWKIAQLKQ

4H568-bA = molecular target: T32, 4H568-bA; assay: two-hybrid library CCNG1
T32 chain: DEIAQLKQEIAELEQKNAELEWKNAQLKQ

4H607-bA = molecular target: T33, 4H607-bA; assay: two-hybrid library CCNG1
T33 chain: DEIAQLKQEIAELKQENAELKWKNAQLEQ

4H687-bA = molecular target: T34, 4H687-bA; assay: two-hybrid library CCNG1
T34 chain: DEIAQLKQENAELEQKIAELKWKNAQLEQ

4H72-bA = molecular target: T35, 4H72-bA; assay: two-hybrid library CCNG1
T35 chain: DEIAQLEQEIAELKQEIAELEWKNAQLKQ

4H797-bA = molecular target: T36, 4H797-bA; assay: two-hybrid library CCNG1
T36 chain: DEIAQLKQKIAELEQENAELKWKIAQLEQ

4H883-bA = molecular target: T37, 4H883-bA; assay: two-hybrid library CCNG1
T37 chain: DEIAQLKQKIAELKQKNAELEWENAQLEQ

4H918-bA = molecular target: T38, 4H918-bA; assay: two-hybrid library CCNG1
T38 chain: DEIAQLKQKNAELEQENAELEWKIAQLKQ

4H953-bA = molecular target: T39, 4H953-bA; assay: two-hybrid library CCNG1
T39 chain: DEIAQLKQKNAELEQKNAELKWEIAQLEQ

4H967-bA = molecular target: T40, 4H967-bA; assay: two-hybrid library CCNG1
T40 chain: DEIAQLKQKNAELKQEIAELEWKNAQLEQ

B1: APC2556-AA (peptide)
chain: DEAAALEAKNAALKAKNAALKAELAAEEG
- interaction score (APC2556-AA): -1.78
- interaction score (APC2724-AA): -1.65
- interaction score (APC2811-AA): -1.73
- interaction score (APC2981-AA): -1.98
- interaction score (APC3265-AA): -1.69
- interaction score (APC3323-AA): -1.82
- interaction score (APC3354-AA): -1.9
- interaction score (APC3881-AA): -1.61
- interaction score (APC4100-AA): -2.2
- interaction score (APC4336-AA): -1.77
- interaction score (APC5009-AA): -1.65
- interaction score (APC542-AA): -1.72
- interaction score (APC5531-AA): -1.7
- interaction score (APC6088-AA): -1.75
- interaction score (APC7524-AA): -2.09
- interaction score (APC8401-AA): -1.48
- interaction score (APC8516-AA): -2.01
- interaction score (APC9141-AA): -1.94
- interaction score (APC9182-AA): -1.74
- interaction score (APC9291-AA): -1.79
- interaction score (APC9806-AA): -2.15

B2: 4H2697-bA (peptide)
chain: DKIAQLKQENAELEQEIAELKWEIAQLEQ
- interaction score (4H2697-bA): -0.377
- interaction score (4H3041-bH): 1.02
- interaction score (4H3189-bA): -1.34
- interaction score (4H331-bA): -1.52
- interaction score (4H3606-bA): -1.7
- interaction score (4H370-bA): -1.13
- interaction score (4H3782-bA): 0.993
- interaction score (4H3843-bA): -0.367
- interaction score (4H4001-bA): -0.951
- interaction score (4H462-bA): 2.04
- interaction score (4H568-bA): -1.82
- interaction score (4H607-bA): -1.17
- interaction score (4H687-bA): -1.08
- interaction score (4H72-bA): -1.03
- interaction score (4H797-bA): -0.734
- interaction score (4H883-bA): -1.53
- interaction score (4H918-bA): -0.926
- interaction score (4H953-bA): -1.44
- interaction score (4H967-bA): -0.359
